Reference: the supplement of paper PMC9732359
± gives the uncertainty stated by the source.

Experiment: protein stability index of a GFP-peptide fusion (yeast GPS) (PSI 1-4); higher = more stable; sorted into four equal gates, so the index is relative within each strain
Conditions: pdr5∆
How it was run: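 The protein stability index of a peptide was calculated by multiplying its read frequency in each gate by that gate's number and adding the products. The peptides were tiled 17-residue stretches of yeast proteins, fused downstream of GFP on a Cherry-expressing plasmid and carried in yeast as a pooled library. Mid-log cultures in leucine-free medium were sorted into four equal gates by GFP/Cherry ratio, and each gate's plasmids were PCR-amplified and Illumina-sequenced.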

Sequence	protein stability index
GSNQKPKYEPPVQSKFG [RPT2]	3 ± 0.15
GSQILSGVMDKSVLGDG [RPO31]	3.28 ± 0.12
GSRTTTNHVLEVFSVLG [RPO31]	2.76 ± 0.14
GSSAGMNGRSLTYAQQQ [SNF6]	3.15 ± 0.081
GSSNKAVVQTVKGLLNT [YJL039C/NUP192]	3.13 ± 0.11

Same assay, conditions: san1∆

Sequence	protein stability index
FSVRTKDSNKDVVVEGL [RPL10]	2.13 ± 0.073
FSYQEVEFKLPKELVPS [CDC53]	2.07 ± 0.076
FTGEKPIITGSTSTSSS [MED8]	2.78 ± 0.052
FTVDKKIAERSLLLKNY [SKP1]	2.92 ± 0.14
FVFQTVFDTAITSWYEN [QCR9]	1.74 ± 0.077
FVIGEQGKPYISLPKGK [RPS4A]	3.25 ± 0.051
FVKNIRMLSFEDISKAT [RPN9]	1.91 ± 0.078
FVLLEIEPVTKVSSLKM [YCS4]	2.48 ± 0.059
FWSFLDSLIFKDSSLNY [YJL039C/NUP192]	2.11 ± 0.15
FYDYIKERSIVVGRTTR [REC8]	1.22 ± 0.13
FYGVLDQGNGWLYVYET [RPN6]	1.9 ± 0.095
FYQQVHKKDRLQYLPLY [SIR4]	1.75 ± 0.11
GAETDELSMIMEHFSQQ [RPS12]	3.35 ± 0.059
GAFTIALAYAGTGNNSA [RPN2]	1.99 ± 0.099
GAGGLNPFTSATSSTNA [YOR098C/NUP1]	2.69 ± 0.18
GAQFSRSYDLTRHQNTI [RPN4]	1.85 ± 0.18
GATKIVREHYLRSDIPC [DIS3]	2.1 ± 0.093
GCENPADVFRRCLVAVI [SRP72]	2.29 ± 0.088
GCLIKNLPRTKAKSVVN [RMP1]	1.92 ± 0.17
GCLNFVDENDEVLLAGF [RPS23A]	1.5 ± 0.095
GDANNRWDKEEYQSLMS [SMC1]	3.05 ± 0.28
GDDEATEIISTLSNGLI [BRR2]	3.42 ± 0.096
GDFGGWFCPCHGSHYDI [RIP1]	3 ± 0.058
GDKEATAPLIQRKNKKN [RPN8]	3.18 ± 0.088
GDPALVYKFMSLAKSSA [ECM29]	2.54 ± 0.089

Sequence	protein stability index
GDYGSAKCNSLLQLKYF [POP5]	2.23 ± 0.067
GEAEAEKEEEEAKEESD [RPP1A]	2.54 ± 0.16
GEICKNYELEKIADNIS [YDL116W/NUP84]	2.96 ± 0.061
GELGEIRALQPKLKEGA [YIL149C/MLP2]	2.81 ± 0.15
GEMVGVLAAQSIGEPAT [RPO21]	2.38 ± 0.066
GENAAEKPDNSNHNNLN [SNF2]	3.27 ± 0.05
GENDDDTLDGDLMDDMS [RPN3]	2.11 ± 0.12
GENNINFQKASATLDGC [BRN1]	3.12 ± 0.25
GEVVYLRKQKDSSTTSS [ITC1]	1.48 ± 0.14
GGADQVTRTQQWSMVAQ [SWI1]	3.03 ± 0.063
GGKSVGFGLVYNSVAEA [RPS24A]	3.15 ± 0.035
GGLKNGVLYQGNIQISE [DIS3]	2.9 ± 0.072
GGQIAHILFQNNPDMMI [ROX3]	2.59 ± 0.052
GGSATARHKKKVENLDY [YML031W/NDC1]	3.06 ± 0.12
GGTNEDDFTDAIQFVKE [YCS4]	3.39 ± 0.07
GHEELKRRIEEEQEKIN [ISW2]	3.13 ± 0.062
GHIPWHILAVKKMMNTL [SSN2]	2.74 ± 0.1
GIEHFDIPPPAIMKPYY [RPO31]	3.34 ± 0.13
GIFLHGKIPTLKISLIQ [PRP8]	1.79 ± 0.053
GISDDENDEEDIYMHDV [RRP4]	2.99 ± 0.12
GISDMCRLFFTELASKD [YCS4]	2.18 ± 0.1
GISRDIKALQDSLFKDV [YML103C/NUP188]	2.07 ± 0.089
GKHNLTIWCVCDSYLDA [BRR2]	2.73 ± 0.093
GKILLKGDNITLITSAD [SME1]	2.77 ± 0.092
GKIVGFDEFMNVVIDEA [SME1]	3.36 ± 0.056

Sequence	protein stability index
GKIVSQRGKWNLKYLDN [RGR1]	2.37 ± 0.091
GKKSSSSTKDYLTPPHE [RET1]	3.52 ± 0.22
GKLWKDVKARIAAGDGD [QCR9]	2.17 ± 0.07
GKMNNEVSTSTSMTGDA [SWI3]	3.2 ± 0.054
GKSEKLSLLLVEDKIPL [SKI6]	3.23 ± 0.056
GLALQLFKKLKEENDEG [RPN2]	2.96 ± 0.1
GLARKFHNMLQTLYTGD [SSN3]	3.01 ± 0.077
GLEVGPVVQVGIFIKIL [IRR1]	2.11 ± 0.15
GLGVNRRILAAAAAAAA [SSN3]	1.08 ± 0.2
GLRAVRKNRYVILQSDL [RPT3]	3.05 ± 0.08
GLSIHPTQITQYTQRLS [SRP68]	1.92 ± 0.071
GMIYNKLFVSKEHAPYT [FAS2]	2.24 ± 0.17
GNDFKFNYQGDELVLNF [REC8]	3.34 ± 0.053
GNLSKREIQIDAVLKIF [SRB8]	2.99 ± 0.063
GNPYIELNQDRLGGDDL [SNF5]	3.03 ± 0.11
GNSERPSAVAGFINQKN [YIL149C/MLP2]	2.93 ± 0.097
GNSKDDLLDMIQFGAKN [ISW2]	2.95 ± 0.11
GNVLINDTLPDEISPEL [SNU114]	3.32 ± 0.081
GPAAAKPMAFSNTTTHV [MTR3]	3.39 ± 0.05
GPHKGKAPRILSTGRKF [RPL18A]	3.21 ± 0.16
GPSATDPETTATQKESL [RGR1]	1.66 ± 0.11
GQAIVVHPDYLYGAITE [FAS2]	1.9 ± 0.048
GQLLKDHLIIEPEEEKS [ARP9]	1.6 ± 0.096
GQLPQLPKLNLPKYQTI [SNF5]	2.57 ± 0.074
GRDAFHLRVRVHPFHVL [RPL10]	1.86 ± 0.11

Sequence	protein stability index
GRDKHALSLLYHLLNYD [SSN3]	2.94 ± 0.054
GRICRPLIIVSDGQSRV [RET1]	1.75 ± 0.059
GRIPLHWSVSFQAHEIT [NAS6]	2.48 ± 0.073
GRKVLQKVQGESHIDSR [SIR4]	3.17 ± 0.09
GRNIGHPIIQDKEGNGV [RPB3]	3.04 ± 0.1
GRNRGRPNRRGPRNTEE [RPS2]	3.58 ± 0.1
GRRISENGQRDLDRIAA [RPS19A]	3.4 ± 0.064
GSAELRNSYPASFYSVN [RPN3]	2.87 ± 0.059
GSEIAISSLGYRSHIFA [SWI3]	2.45 ± 0.051
GSIEEPELNVSLNLTDD [MCD1]	3.15 ± 0.064
GSIPVDQVVVRGIDTLQ [RPB3]	1.89 ± 0.099
GSIQKGMPHKFYQGKTG [RPL21A]	2.9 ± 0.21
GSIRVHKSGKLSVKIGN [RPC53]	1.75 ± 0.068
GSKLEDMSKILVDQGFN [RET1]	3.31 ± 0.034
GSKQADRMAKYLHIRDK [PGD1]	3.09 ± 0.057
GSLNATNFSPTPANNGE [SNF2]	2.76 ± 0.049
GSLTFLDNKGSGEDAEE [YIL149C/MLP2]	3.56 ± 0.12
GSMFSGDNTSDVDMEDR [RRI1]	2.51 ± 0.12
GSNQKPKYEPPVQSKFG [RPT2]	2.34 ± 0.22
GSQILSGVMDKSVLGDG [RPO31]	3.41 ± 0.068
GSSAGMNGRSLTYAQQQ [SNF6]	3.03 ± 0.058
GSSNKAVVQTVKGLLNT [YJL039C/NUP192]	2.59 ± 0.11
